B1: ZW106 (antibody, V domains shown)
VH: QVQLQQPESELVRPGGSVKLSCKASGYTFTSYWMDWVKQRHGQGLEWIGNIYPDSGGTNYAEKFKSKATLTVDTSSSTAYMHLSSLTSEDSAVYYCTREEALGGYYELTYWGQGTLVTVSA
VL: DIVLTQSPASLPVSLGQRATISCRASQSVSTSSYSYMHWYQQKPGQPPKLLIKYASNLESGVPARFSGSGSGTDFTLNIHPVEEEDTATYYCQHSWEIPYTFGGGTKLEIE
B2: ZW104 (antibody, V domains shown)
VH: QVQLQQSGAELARPGASVKMSCKASGYIFTTYAMHWVKQRPGQGLEWIGYINPTTVYTIYNQKFKDKATLTADKSSSTAYMQLSSLTSEDSAVYYCARLGGHWYFDVWGAGTTVTVSS
VL: not shown
B3: ZW103 (antibody, V domains shown)
VH: QVQLQQSGAELVRPGVSVKISCKGSGYTFTDYAMHWVKQSHVKSLEWIGGISTYNGDASYNQKFKGKATMTVDKSSRTAYMELVRLTSEDSAIYYCAPSNYGYAMDYWGQGTSVTVSS
VL: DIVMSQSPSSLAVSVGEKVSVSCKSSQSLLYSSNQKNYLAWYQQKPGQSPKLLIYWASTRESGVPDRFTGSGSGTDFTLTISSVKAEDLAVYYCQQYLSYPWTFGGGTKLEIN
B4: ZW107 (antibody, V domains shown)
VH: QVQLQQSGAELVRPGTSVKISCKASGYAFTNYWLGWVKQRPGHGLEWIGDIYPGNGNNYYSEKFKDKATLTADKSSSTVYIRLSSLTSEDSAVYFCARHGSFRSAMDYWGQGTSVTVSS
VL: DIQMTQSPASPSASVGETVTITCRASENIYSYLAWYQQKQGKSPQLLVYNAKTLADGVPSRFSGSGSGTQFSLKINSLQPEDFGSYYCQHHYGTPPTFGGGTKLEIK

Target: human 4-1BB ECD (human, UniProt Q07011)
Sequence (Q07011 24-186): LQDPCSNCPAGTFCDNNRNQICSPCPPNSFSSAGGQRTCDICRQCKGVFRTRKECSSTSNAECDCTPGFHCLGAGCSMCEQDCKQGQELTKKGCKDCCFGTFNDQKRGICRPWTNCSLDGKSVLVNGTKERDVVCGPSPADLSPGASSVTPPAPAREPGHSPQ

**Q.** How did the Kd turn out when B1 was run?
**A.** The Kd was 1.2 nM.

**Q.** Which Kd does the source give for B2 here?
**A.** The Kd was 0.0474 nM.

**Q.** How did the Kd turn out when B3 was run?
**A.** Its Kd is 0.265 nM.

**Q.** For B4, which Kd is on record?
**A.** The Kd was < 0.001 nM.
